± gives the uncertainty stated by the source.
Test: self-splicing fitness, log relative to wild type (ln ratio); higher = more splicing; Tetrahymena group I intron in knt gene, E. coli kanamycin selection, DiMSum; sequences stand for … in CUCUCU…GGAGGGAAAAGUUAUCAGGCAUGCACCUGGUAGCUAGUCUUUAAACCAAUAGAUUGCAUCGGUUUAAAAGGCAAGACCGUCAAAUUGCGGGAAAGGGGUCAACAGCCGUUCAGUACCAAGUCUCAGGGGAAACUUUGAGAUGGCCUUGCAAAGGGUAUGGUAAUAAGCUGACGGACAUGGUCCUAACCACGCAGCCAAGUCCUAAGUCAACAGAUCUUCUGUUGAUAUGGAUGCAGUUCACAGACUAAAUGUCGGUCGGGGAAGAUGUAUUCUUCUCAUAAGAUAUAGUCGGACCUCUCCUUAAUGGGAGCUAGCGGAUGAAGUGAUGCAACACUGGAGCCGCUGGGAACUAAUUUGUAUGCGAAAGUAUAUUGAUUAGUUUUGGAGUACUCGUGGUCG
Outline: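 A randomised library covering all eight P1ex-region intron nucleotides was built with the intron in the knt kanamycin-resistance gene on pET-22b(+) and held in E. coli BL21(DE3). Cells were grown overnight at 37°C or 30°C on LB agar, with or without 25 μg/mL kanamycin, plus 100 μg/mL carbenicillin, 50 μM IPTG and 0.2% rhamnose, and pooled colonies were amplicon-sequenced on an Illumina HiSeq 2500. DiMSum fitness is the error-weighted combination of wild-type-normalised replicate fold changes, kanamycin versus none.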

Sequence	self-splicing fitness (ln) (30 °C)	self-splicing fitness (ln) (37 °C)
ACAUAGCAAUAUUACGUUGA	-2.56 ± 0.17	-1.66 ± 0.14
ACAUAGCAAUAUUACGUUUA	-2.82 ± 0.19	-1.75 ± 0.14
ACCAAGCAAUAUUACGAAAG	-3.27 ± 0.18	-1.78 ± 0.14
ACCAAGCAAUAUUACGAGAA	-2.87 ± 0.34	-2.32 ± 0.3
ACCAAGCAAUAUUACGAGCA	-2.53 ± 0.12	-0.958 ± 0.099
ACCAAGCAAUAUUACGAGUA	-2.81 ± 0.14	-2.29 ± 0.13
ACCAAGCAAUAUUACGAGUU	-4.23 ± 0.23	-1.99 ± 0.17
ACCAAGCAAUAUUACGAUAG	-4.36 ± 0.23	-2.7 ± 0.21
ACCAAGCAAUAUUACGAUCC	-1.83 ± 0.093	-0.778 ± 0.14
ACCAAGCAAUAUUACGCAGC	-1.83 ± 0.11	-1.12 ± 0.13
ACCAAGCAAUAUUACGCCGA	-2.23 ± 0.15	-1.81 ± 0.16
ACCAAGCAAUAUUACGCCGG	-2.33 ± 0.13	-0.125 ± 0.13
ACCAAGCAAUAUUACGCCGU	-3.18 ± 0.17	-1.66 ± 0.15
ACCAAGCAAUAUUACGCGAC	-3.19 ± 0.16	-1.59 ± 0.16
ACCAAGCAAUAUUACGCGCA	-0.525 ± 0.054	-0.106 ± 0.07
ACCAAGCAAUAUUACGCUGG	-2.75 ± 0.15	-2.72 ± 0.21
ACCAAGCAAUAUUACGCUUG	-2.72 ± 0.21	-3.79 ± 0.36
ACCAAGCAAUAUUACGGACA	-0.841 ± 0.068	-0.38 ± 0.072
ACCAAGCAAUAUUACGGCUU	-3.85 ± 0.2	-1.85 ± 0.16
ACCAAGCAAUAUUACGGUCA	-1.36 ± 0.082	-0.9 ± 0.086
ACCAAGCAAUAUUACGUAAC	-3.94 ± 0.17	-2.19 ± 0.16
ACCAAGCAAUAUUACGUAGG	-2.55 ± 0.068	-2.03 ± 0.096
ACCAAGCAAUAUUACGUCCA	-2.01 ± 0.096	-1.3 ± 0.1

From the supplement of paper PMC7877785
